# Assays:
# Test in all cases: ProteOn SPR binding of 39S to captured chimeric Her2 variants
# [1] = target: T1, chimeric human/mouse Her2 variants (Homo sapiens, UniProt P04626, A221T/F173L/G201D/G222S/H174R/H193P/I172V/I184M/L181P/L183D/M198T/P230R/R203H/R217G/S196A/S202N/S209P/S214I/T182V/V219I); settings: variant KO_146-208
# T1 construct: His tag; made in house; host or cells: HEK293F (transient, pEBNA vector; captured from culture supernatant)
# Excerpt: (§1) The domain II of human HER2 was identified as the epitope of 39S by swapping domains between human and mouse Her2 molecules. Mouse Her2 was chosen as the chimeric partner because it is not recognized by 39S, but shares 85% sequence identity with human HER2. Chimeric variants targeting each domain of HER2 were constructed (see method below) as listed in Table 4, including four knock-out (KO, loss-of-function) variants replacing domain I, II, III, or IV of human HER2 with the mouse counterpart, and one knock-in (KI, gain-of-function) variant grafting the domain II of human HER2 into mouse Her2 molecule. The chimeric variant nomenclature denotes types of variants (KO/KI) and the number of domains swapped. The binding profiles of 39S to these variants were characterized using a SPR based instrument ProteOn™ by capturing variants on sensor surfaces using anti-human and mouse Her2 polyclonal antibodies (see method below). The expression of the variants was monitored by anti-His polyclonal antibody using ProteOn™. […] Therefore, the domain II (amino acid 146-310) of human HER2 was identified as the epitope-containing domain of 39S by both loss-of-function and gain-of-function variants.
# (§2) We further refined the epitope of 39S and identified the region of amino acid 192-208 in domain II as the critical epitope region. […] Seven knock-out variants were generated by replacing each of the following human HER2 regions with the mouse counterparts, including amino acids 146-208, 159-162, 171-187, 192-208, 250-261, 276-285, and 295-296. In addition, one knock-in variant was constructed by grafting the region of amino acid 192-208 of human HER2 to the mouse molecule. The variant nomenclature denotes types of variants (KO/KI) and the swapped regions with amino acid numbering. All variants had detectable expression levels by anti-His polyclonal antibody (Table 4). […] The binding of 39S was not impacted when substituting any other regions of human HER2 with mouse amino acids (KO_159-162, KO_171-187, KO_250-261, KO_276-285, and KO_295-296). […] Taken together, the region of amino acid 192-208 in domain II of human HER2 was identified as the functional epitope of 39S.
# (§3) The variant nomenclature denotes types of variants (KO/KI) and the swapped regions with amino acid numbering. Amino acid positions were denoted basing on the numbering scheme of mature human HER2 sequences without its signal peptide. The expression levels of all variants were monitored by an anti-His polyclonal antibody. The binding profiles of 39S to these variants were characterized using a SPR based instrument ProteOn™ by capturing variants on sensor surfaces using anti-human and mouse Her2 polyclonal antibodies.
# (§4) Construction and expression of chimeric human/mouse Her2 variants were constructed as follows. Briefly, DNAs encoding chimeric human/mouse Her2 variants with a His tag were assembled and amplified by overlapping PCR using human and mouse Her2 plasmids as templates (MedImmune). The assembled DNAs were cloned into the mammalian expression vector pEBNA (MedImmune). HEK293F cells were then transiently transfected with the various constructs using 293fectin and standard protocols according to the manufacturer's instructions (Invitrogen).
# (§5) The binding characteristics of 39S to chimeric human/mouse variants were studied using a ProteOn™ XPR36 instrument (BioRad). Standard amine coupling was used to immobilize an anti-human or mouse Her2 polyclonal antibody (R&D System) in 10 mM sodium acetate (pH 5.0) to the surface of a GLC biosensor chip at ˜5000 resonance units (RU) for each channel. The chimeric proteins in cell culture supernatant were injected and captured by anti-human or mouse polyclonal antibodies onto the GLC surface with a ˜200RU response. Anti-HER2 mAb 39S was diluted in phosphate-buffered saline (PBS) (pH 7.4) with 0.005% Tween-20 from 10 nM to 0.625 nM (1:2 dilution), and injected at 100 μL/min for 180 sec with a 600-second dissociation time. […]
# [2] = target: T2, chimeric human/mouse Her2 variants (Homo sapiens, UniProt P04626, G201D/H193P/M198T/R203H/S196A/S202N/S209P); settings: variant KO_171-187
# T2 construct: His tag; made in house; host or cells: HEK293F (transient, pEBNA vector; captured from culture supernatant)
# Excerpt: as §1, §2, §3, §4, §5
# [3] = target: T3, chimeric human/mouse Her2 variants (Homo sapiens, UniProt P04626, I184M/L181P/L183D/T182V); settings: variant KO_159-162
# T3 construct: His tag; made in house; host or cells: HEK293F (transient, pEBNA vector; captured from culture supernatant)
# Excerpt: as §1, §2, §3, §4, §5
# [4] = target: T4, chimeric human/mouse Her2 variants (Mus musculus, UniProt P70424, A197S/A354V/A504E/D184L/D202G/D360A/D439N/E308D/E418D/E503D/E575V/E586V/E640D/F420L/G218R/G341R/G353E/G389N/G498A/G506V/G558A/H204R/H397Q/H452S/I215S/I220V/I273V/I357V/I623A/K394Q/K549Q/K559R/L174F/L284P/L507G/M185I/N203S/N319H/N385D/N479H/N513H/P182L/P194H/P210S/P318L/Q421P/R175H/R231P/R430Q/R471H/R557N/R641K/S223G/S387A/S453W/S497T/S514Q/S573G/S580P/S594P/S595P/S596F/T199M/T222A/T299A/V173I/V183T/V390T/V511A/W548L/Y578F/Y617F); settings: variant KO_I, swapped human HER2 amino acids 1-145; apparent affinity, variant captured on chip
# T4 construct: His tag; made in house; host or cells: HEK293F (transient, pEBNA vector; captured from culture supernatant)
# Excerpt: as §1, §2, §3, §4, §5
molecule,measurement,setting,value
"39S: lead optimized monoclonal antibody derived from the 1.39.1 antibody; VH SEQ ID NO:15, VL SEQ ID NO:16 (antibody, V domains shown) VH: EVQLVESGGGLVKPGGSLRLSCAASGFTFSSYSMSWVRQAPGKGLEWVSSISSSSSYIYYADSVKGRFTISRDNAKNSLYLQMNSLRAEDTAVYYCARGGDAYNYYYFDYWGQGTLVTVSS VL: DIVMTQTPLSLSVTPGQPASISCKSSQSVFFRSNNKNILAWYLQKPGQPPQLLIYWASSRESGVPDRFSGSGSGTDFTLKISRVEAEDVGVYYCQQYFGSPFTFGPGTKVDIK",The binding affinity of 39S (KD),[1],did not bind and No
same,The binding affinity of 39S (KD),[2],not impacted
same,The binding affinity of 39S (KD),[3],not impacted
same,Kd,[4],0.095 nM
same,The binding affinity of 39S (KD),[4],retained binding
